Biological target: 6xHis-GABARAP (UniProt O95166 1-117)
Assay: pull-down

6xHis-GABARAP, sequence (O95166 whole entry): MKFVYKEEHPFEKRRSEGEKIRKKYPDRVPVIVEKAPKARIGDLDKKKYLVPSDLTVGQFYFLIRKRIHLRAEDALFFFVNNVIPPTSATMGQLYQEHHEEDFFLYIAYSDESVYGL

B1: GST-MAPK15_300–373_WT (domain or fragment, UniProt Q8TD08 300-373, looked up)
chain: QHPYVQRFHCPSDEWAREADVRPRAHEGVQLSVPEYRSRVYQMILECGGSSGTSREKGPEGVSPSQAHLHKPRA
  binding result: binds

From PMC3541284 (Autophagy, 2012)
